Laboratory results from paper PMC6053526, “Arabidopsis WRKY50 and TGA Transcription Factors Synergistically Activate Expression of PR1” (Frontiers in Plant Science, 2018).
Values belong to the binder of their own block, whether it stands above or below them.

Target: AtWRKY50 full length fused to a half of yellow fluorescent protein (BiFC) (Arabidopsis, UniProt Q8VWQ5 1-173)
Test: cell-based or functional assay

Sequence of AtWRKY50 full length fused to a half of yellow fluorescent protein (BiFC) (Q8VWQ5 whole entry, the tested form may be a part): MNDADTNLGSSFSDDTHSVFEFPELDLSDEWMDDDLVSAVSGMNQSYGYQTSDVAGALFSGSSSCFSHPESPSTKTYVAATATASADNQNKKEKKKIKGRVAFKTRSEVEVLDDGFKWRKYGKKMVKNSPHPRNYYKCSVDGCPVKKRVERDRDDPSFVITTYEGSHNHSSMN

PR1::GUS reporter expression in Arabidopsis protoplasts co-transfected with 35S::AtWRKY50 and 35S::TGA2 (AtWRKY50 alone approximately 7-fold, TGA alone 2-fold): ≤ 14 fold
B1: TGA2 full length fused to a half of yellow fluorescent protein (BiFC) (natural protein, Arabidopsis, UniProt P43273 1-330, looked up)
chain: MADTSPRTDVSTDDDTDHPDLGSEGALVNTAASDSSDRSKGKMDQKTLRRLAQNREAARKSRLRKKAYVQQLENSRLKLTQLEQELQRARQQGVFISGTGDQAHSTGGNGALAFDAEHSRWLEEKNKQMNELRSALNAHAGDSELRIIVDGVMAHYEELFRIKSNAAKNDVFHLLSGMWKTPAERCFLWLGGFRSSELLKLLANQLEPMTERQLMGINNLQQTSQQAEDALSQGMESLQQSLADTLSSGTLGSSSSGNVASYMGQMAMAMGKLGTLEGFIRQADNLRLQTLQQMIRVLTTRQSARALLAIHDYFSRLRALSSLWLARPRE

PR1::GUS reporter expression in Arabidopsis protoplasts co-transfected with 35S::AtWRKY50 and 35S::TGA5 (AtWRKY50 alone approximately 7-fold, TGA alone 2-fold): ≤ 14 fold
B2: TGA5 full length fused to a half of yellow fluorescent protein (BiFC) (natural protein, Arabidopsis, UniProt Q39163 1-330, looked up)
chain: MGDTSPRTSVSTDGDTDHNNLMFDEGHLGIGASDSSDRSKSKMDQKTLRRLAQNREAARKSRLRKKAYVQQLENSRLKLTQLEQELQRARQQGVFISSSGDQAHSTAGDGAMAFDVEYRRWQEDKNRQMKELSSAIDSHATDSELRIIVDGVIAHYEELYRIKGNAAKSDVFHLLSGMWKTPAERCFLWLGGFRSSELLKLIASQLEPLTEQQSLDINNLQQSSQQAEDALSQGMDNLQQSLADTLSSGTLGSSSSGNVASYMGQMAMAMGKLGTLEGFIRQADNLRLQTYQQMVRLLTTRQSARALLAVHNYTLRLRALSSLWLARPRE
